These results are taken from paper PMC4510971, “Ubinuclein-1 confers histone H3.3-specific-binding by the HIRA histone chaperone complex” (Nature Communications, 2015).

Substitutions are numbered along the chain they refer to. No end group written: not given here. *: point of attachment. FITC = O=C1OC2(c3ccc(O)cc3Oc3cc(O)ccc32)c2ccc(NC(=S)*)cc21

Details in all cases: both partners purified
In test [1] the target is T1, H3.3/H4 (human | X. laevis, UniProt P84243 1-136; P62799 1-103).
T1 construct: histone H3.3, human, from a human cDNA library (ATCC 77430); also called H3.3(FL)/H4(FL); FL H3.3/H4; not shown: His6, N-terminal, cleaved; copies: 2 + 2
Briefly: ITC; 0.450 mM UBN1 injected into a cell with 30 μM H3/H4, 22 °C; 20 mM HEPES pH 7.5, 750 mM NaCl, 1 mM TCEP.

The target in test [2] is T1, H3.3/H4. Briefly: fluorescence polarisation; direct: increasing H3/H4 titrated into 10 nM FITC-UBN1(127–148); 20 mM HEPES pH 7.5, 750 mM NaCl, 1 mM TCEP; one site total binding fit.
Test [3] has as its target T2, H3.1/H4 (human | X. laevis, UniProt P68431 1-136; P62799 1-103).
T2 construct: also called H3.1(FL)/H4(FL); FL H3.1/H4; not shown: His6, N-terminal, cleaved; copies: 2 + 2
The test is described as above.

Test [4] deals with T1, H3.3/H4. Briefly: pull-down; 2 μM GST-tagged protein as bait on glutathione agarose, 4 μM H3/H4; 20 mM HEPES pH 7.5, 750 mM NaCl, 1 mM TCEP, 4 °C; Coomassie gel (Figs 2, 3, Supplementary Figs 1, 4, 5).
Test [5] concerns the target T3, Asf1/H3.3(FL)/H4(FL) (S. cerevisiae | human | X. laevis, UniProt P32447 1-169; P84243 1-136; P62799 1-103).
T3 construct: histone H3.3, human; also called Asf1/H3.3(FL)/H4(FL) complex; not shown: His6, N-terminal, cleaved; copies: + +
Kind of test: ITC; 0.450 mM UBN1 injected into a cell with 30 μM H3/H4, 22 °C; 20 mM HEPES pH 7.5, 750 mM NaCl, 1 mM TCEP. (In general: ITC needs no label: the signal is the heat of the interaction.)

Test [6] addresses T1, H3.3/H4. Kind of test: ITC + fluorescence polarisation; range of dissociation constants printed 'depending on the assay used' (ITC and FP competition against FITC-UBN1(127–148)); 750 mM NaCl buffer. In general terms: In fluorescence polarisation assays a small probe gives low polarisation when free and higher when bound to something large.
In test [7] the target is T1, H3.3/H4. Kind of test: fluorescence polarisation; competition: UBN1 competitor titrated into 10 nM FITC-UBN1(127–148) with 6.5 μM H3.3/H4 or 25 μM H3.1/H4; 20 mM HEPES pH 7.5, 750 mM NaCl, 1 mM TCEP.

B1: UBN1(122–175) (domain or fragment)
chain: not shown
Turning to B1, the binding result in test [1] is “binds”.

B2: UBN1(92–148) (domain or fragment)
chain: NDEEKERHKVEALARKFEEKYGGKKRRKDRIQDLIDMGYGYDESDSFIDNSEAYDEL
Regarding B2, the binding result in test [1] was “binds”.

B3: FITC-UBN1(127–148) (peptide)
peptide: {FITC}-DMGYGYDESDSFIDNSEAYDEL
notes: also called FITC-labelled UBN1 peptide; source: synthetic peptide (Genscript)
Regarding B3, the Kd (as a rule, the free concentration of one partner at which half of the binding sites on the other are occupied at equilibrium, for simple one-to-one binding) was found to be 4.3 ± 0.2 µM in test [2] and 17.7 ± 2.3 µM in test [3].

B4: GST-UBN1(92–175) S137A (domain or fragment)
chain: NDEEKERHKVEALARKFEEKYGGKKRRKDRIQDLIDMGYGYDESDAFIDNSEAYDELVPASLTTKYGGFYINSGTLQFRQASES
notes: also called S137 alanine point mutant; source: E. coli BL21-Gold(DE3), purified; not shown: GST, N-terminal, kept
On to B4, for which the binding result in test [4] is listed as “binds”.

B5: GST-UBN1(92–175) E134A (domain or fragment)
chain: B4 chain with E43A, A46S
notes: one of the 27 alanine point mutants; the text names only the residue; also called E134 alanine point mutant; source: E. coli BL21-Gold(DE3), purified; not shown: GST, N-terminal, kept
B5: the binding result in test [4] is reported as “binds”.

B6: GST-UBN1(92–175) S135A (domain or fragment)
chain: B4 chain with S44A, A46S
notes: one of the 27 alanine point mutants; the text names only the residue; also called S135 alanine point mutant; source: E. coli BL21-Gold(DE3), purified; not shown: GST, N-terminal, kept
With B6, in test [4], the binding result is listed as “binds”.

B7: UBN1(122–148) peptide (peptide)
peptide: IQDLIDMGYGYDESDSFIDNSEAYDEL
notes: also called UBN1-HRD peptide; source: synthetic peptide (Genscript)
For B7, the Kd is approximately 49 µM in test [5] and 40 to 46 µM in test [6].

B8: UBN1(92–175) (domain or fragment)
chain: B4 chain with A46S
notes: also called UBN1 WT; source: E. coli BL21-Gold(DE3), purified (glutathione agarose, TEV cleavage, gel filtration); not shown: GST, N-terminal, cleaved
In the case of B8, the equilibrium dissociation constant (Kd) in test [6] was in the range of 7 to 17 µM.

B9: UBN1(92–175) E134A (domain or fragment)
chain: B4 chain with E43A, A46S
notes: one of the 27 alanine point mutants; the text names only the residue; also called E134 alanine point mutant; source: E. coli BL21-Gold(DE3), purified (TEV cleavage, gel filtration); not shown: GST, N-terminal, cleaved
Turning to B9, in test [7], the binding result is “binds”.

B10: UBN1(92–175) S137A (domain or fragment)
chain: B4 chain
notes: source: E. coli BL21-Gold(DE3), purified (TEV cleavage, gel filtration); not shown: GST, N-terminal, cleaved
With B10, the binding result in test [7] is given as “binds”.

B11: UBN1(92–175) S135A (domain or fragment)
chain: B4 chain with S44A, A46S
notes: one of the 27 alanine point mutants; the text names only the residue; also called S135 alanine point mutant; source: E. coli BL21-Gold(DE3), purified (TEV cleavage, gel filtration); not shown: GST, N-terminal, cleaved
On to B11, for which the binding result in test [7] is recorded as “binds”.
